Data taken from the supplement of paper PMC9112550, “Optimization of the antimicrobial peptide Bac7 by deep mutational scanning” (BMC Biology, 2022).

Tested on: Escherichia coli TOP10
Test: shrunken log2 fold change of peptide-encoding DNA abundance (4.5 h post-induction vs induction); higher = less antimicrobial activity (less host growth inhibition)
Details: time post-induction: 4.5 h; library: site-saturation at positions 5, 18, 19, 20
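Also: peptides expressed intracellularly from a pBAD plasmid library in pooled LB shake-flask culture, induced with 0.3% L-arabinose, DNA abundance read by NGS, three biological replicates, DESeq2 with apeglm shrinkage.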

RRIRNRPPRLPRPRPRPIIQPRP
shrunken log2 fold change: -0.481

RRIRNRPPRLPRPRPRPIKAPRP
shrunken log2 fold change: -0.0167

RRIRNRPPRLPRPRPRPIKIPRP
shrunken log2 fold change: -0.357

RRIRNRPPRLPRPRPRPIKLPRP
shrunken log2 fold change: -0.0869

RRIRNRPPRLPRPRPRPIMVPRP
shrunken log2 fold change: 0.00732

RRIRNRPPRLPRPRPRPIPDPRP
shrunken log2 fold change: -0.0956

RRIRNRPPRLPRPRPRPIQSPRP
shrunken log2 fold change: -0.216

RRIRNRPPRLPRPRPRPIQWPRP
shrunken log2 fold change: 0.0441

RRIRNRPPRLPRPRPRPIRIPRP
shrunken log2 fold change: 0.0229

RRIRNRPPRLPRPRPRPIRMPRP
shrunken log2 fold change: -0.00776

RRIRNRPPRLPRPRPRPISEPRP
shrunken log2 fold change: 0.00895

RRIRNRPPRLPRPRPRPITLPRP
shrunken log2 fold change: -0.229

RRIRNRPPRLPRPRPRPITNPRP
shrunken log2 fold change: -0.279

RRIRNRPPRLPRPRPRPIYLPRP
shrunken log2 fold change: -0.376

RRIRNRPPRLPRPRPRPKCEPRP
shrunken log2 fold change: -0.0549

RRIRNRPPRLPRPRPRPKEPPRP
shrunken log2 fold change: 0.0169

RRIRNRPPRLPRPRPRPKERPRP
shrunken log2 fold change: 0.0296

RRIRNRPPRLPRPRPRPKFWPRP
shrunken log2 fold change: 0.177

RRIRNRPPRLPRPRPRPKFYPRP
shrunken log2 fold change: -0.83

RRIRNRPPRLPRPRPRPKGQPRP
shrunken log2 fold change: 0.0938

RRIRNRPPRLPRPRPRPKHGPRP
shrunken log2 fold change: 0.0401

RRIRNRPPRLPRPRPRPKHKPRP
shrunken log2 fold change: -0.0428

RRIRNRPPRLPRPRPRPKMNPRP
shrunken log2 fold change: -0.381

RRIRNRPPRLPRPRPRPKNFPRP
shrunken log2 fold change: 0.0662

RRIRNRPPRLPRPRPRPKNTPRP
shrunken log2 fold change: -0.462

RRIRNRPPRLPRPRPRPKPHPRP
shrunken log2 fold change: 0.174

RRIRNRPPRLPRPRPRPKSPPRP
shrunken log2 fold change: 0.205

RRIRNRPPRLPRPRPRPKSTPRP
shrunken log2 fold change: -0.271

RRIRNRPPRLPRPRPRPKWPPRP
shrunken log2 fold change: 0.208

RRIRNRPPRLPRPRPRPKYTPRP
shrunken log2 fold change: -0.63

RRIRNRPPRLPRPRPRPLCLPRP
shrunken log2 fold change: -0.311

RRIRNRPPRLPRPRPRPLDHPRP
shrunken log2 fold change: -0.0699

RRIRNRPPRLPRPRPRPLDIPRP
shrunken log2 fold change: 0.0164

RRIRNRPPRLPRPRPRPLGHPRP
shrunken log2 fold change: -0.262

RRIRNRPPRLPRPRPRPLGSPRP
shrunken log2 fold change: -0.0602

RRIRNRPPRLPRPRPRPLHEPRP
shrunken log2 fold change: 0.0748

RRIRNRPPRLPRPRPRPLHQPRP
shrunken log2 fold change: -0.112

RRIRNRPPRLPRPRPRPLINPRP
shrunken log2 fold change: -0.533

RRIRNRPPRLPRPRPRPLKHPRP
shrunken log2 fold change: -0.239

RRIRNRPPRLPRPRPRPLPAPRP
shrunken log2 fold change: 1.07

RRIRNRPPRLPRPRPRPLQEPRP
shrunken log2 fold change: -0.0474

RRIRNRPPRLPRPRPRPLQQPRP
shrunken log2 fold change: 0.0184

RRIRNRPPRLPRPRPRPLRKPRP
shrunken log2 fold change: -0.099

RRIRNRPPRLPRPRPRPLSAPRP
shrunken log2 fold change: -0.097

RRIRNRPPRLPRPRPRPLVMPRP
shrunken log2 fold change: -0.126

RRIRNRPPRLPRPRPRPLWDPRP
shrunken log2 fold change: -0.00945

RRIRNRPPRLPRPRPRPLWPPRP
shrunken log2 fold change: 0.14

RRIRNRPPRLPRPRPRPLYWPRP
shrunken log2 fold change: -0.437

RRIRNRPPRLPRPRPRPMCPPRP
shrunken log2 fold change: -0.0135

RRIRNRPPRLPRPRPRPMCVPRP
shrunken log2 fold change: -0.166

RRIRNRPPRLPRPRPRPMDFPRP
shrunken log2 fold change: -0.12

RRIRNRPPRLPRPRPRPMENPRP
shrunken log2 fold change: -0.0164

RRIRNRPPRLPRPRPRPMEVPRP
shrunken log2 fold change: -0.052

RRIRNRPPRLPRPRPRPMGKPRP
shrunken log2 fold change: -0.491

RRIRNRPPRLPRPRPRPMHLPRP
shrunken log2 fold change: -0.179

RRIRNRPPRLPRPRPRPMIEPRP
shrunken log2 fold change: 0.00437

RRIRNRPPRLPRPRPRPMKWPRP
shrunken log2 fold change: 0.0456

RRIRNRPPRLPRPRPRPMLLPRP
shrunken log2 fold change: -0.0366

RRIRNRPPRLPRPRPRPMMGPRP
shrunken log2 fold change: 0.0355

RRIRNRPPRLPRPRPRPMMHPRP
shrunken log2 fold change: -0.25

RRIRNRPPRLPRPRPRPMMNPRP
shrunken log2 fold change: 0.274

RRIRNRPPRLPRPRPRPMPHPRP
shrunken log2 fold change: -0.626

RRIRNRPPRLPRPRPRPMRAPRP
shrunken log2 fold change: 0.517

RRIRNRPPRLPRPRPRPMRTPRP
shrunken log2 fold change: 0.312

RRIRNRPPRLPRPRPRPMSSPRP
shrunken log2 fold change: -0.123

RRIRNRPPRLPRPRPRPMTRPRP
shrunken log2 fold change: -0.386

RRIRNRPPRLPRPRPRPMWAPRP
shrunken log2 fold change: -0.0203

RRIRNRPPRLPRPRPRPMYQPRP
shrunken log2 fold change: -0.201

RRIRNRPPRLPRPRPRPNADPRP
shrunken log2 fold change: -0.194

RRIRNRPPRLPRPRPRPNCIPRP
shrunken log2 fold change: -0.679

RRIRNRPPRLPRPRPRPNCSPRP
shrunken log2 fold change: 7.72e-05

RRIRNRPPRLPRPRPRPNDNPRP
shrunken log2 fold change: -0.734

RRIRNRPPRLPRPRPRPNESPRP
shrunken log2 fold change: -0.121

RRIRNRPPRLPRPRPRPNEYPRP
shrunken log2 fold change: -0.312

RRIRNRPPRLPRPRPRPNGSPRP
shrunken log2 fold change: -0.0999

RRIRNRPPRLPRPRPRPNIIPRP
shrunken log2 fold change: -0.784

RRIRNRPPRLPRPRPRPNKWPRP
shrunken log2 fold change: -0.155

RRIRNRPPRLPRPRPRPNLMPRP
shrunken log2 fold change: -0.733

RRIRNRPPRLPRPRPRPNMPPRP
shrunken log2 fold change: -0.407

RRIRNRPPRLPRPRPRPNNAPRP
shrunken log2 fold change: 0.0167

RRIRNRPPRLPRPRPRPNNRPRP
shrunken log2 fold change: 0.113

RRIRNRPPRLPRPRPRPNNWPRP
shrunken log2 fold change: -0.0773

RRIRNRPPRLPRPRPRPNPVPRP
shrunken log2 fold change: -0.139

RRIRNRPPRLPRPRPRPNQGPRP
shrunken log2 fold change: -0.338

RRIRNRPPRLPRPRPRPNRGPRP
shrunken log2 fold change: 0.0523

RRIRNRPPRLPRPRPRPNSDPRP
shrunken log2 fold change: -0.073

RRIRNRPPRLPRPRPRPNTEPRP
shrunken log2 fold change: -0.206

RRIRNRPPRLPRPRPRPNVQPRP
shrunken log2 fold change: -0.128

RRIRNRPPRLPRPRPRPNVTPRP
shrunken log2 fold change: -0.361

RRIRNRPPRLPRPRPRPNYTPRP
shrunken log2 fold change: -0.359

RRIRNRPPRLPRPRPRPPAPPRP
shrunken log2 fold change: 0.78

RRIRNRPPRLPRPRPRPPATPRP
shrunken log2 fold change: 0.615

RRIRNRPPRLPRPRPRPPCIPRP
shrunken log2 fold change: -0.662

RRIRNRPPRLPRPRPRPPDFPRP
shrunken log2 fold change: 0.272

RRIRNRPPRLPRPRPRPPEHPRP
shrunken log2 fold change: 0.266

RRIRNRPPRLPRPRPRPPFNPRP
shrunken log2 fold change: -0.299

RRIRNRPPRLPRPRPRPPFPPRP
shrunken log2 fold change: 0.309

RRIRNRPPRLPRPRPRPPFQPRP
shrunken log2 fold change: 0.0529

RRIRNRPPRLPRPRPRPPFYPRP
shrunken log2 fold change: -0.403

RRIRNRPPRLPRPRPRPPGHPRP
shrunken log2 fold change: 0.463

RRIRNRPPRLPRPRPRPPHCPRP
shrunken log2 fold change: 0.0234

RRIRNRPPRLPRPRPRPPLWPRP
shrunken log2 fold change: 0.539

RRIRNRPPRLPRPRPRPPLYPRP
shrunken log2 fold change: -0.101

RRIRNRPPRLPRPRPRPPNEPRP
shrunken log2 fold change: 0.217

RRIRNRPPRLPRPRPRPPNKPRP
shrunken log2 fold change: 0.125

RRIRNRPPRLPRPRPRPPNMPRP
shrunken log2 fold change: -0.101

RRIRNRPPRLPRPRPRPPNPPRP
shrunken log2 fold change: 0.411

RRIRNRPPRLPRPRPRPPPRPRP
shrunken log2 fold change: 1.47

RRIRNRPPRLPRPRPRPPRDPRP
shrunken log2 fold change: 0.499

RRIRNRPPRLPRPRPRPPRVPRP
shrunken log2 fold change: 0.379

RRIRNRPPRLPRPRPRPPVGPRP
shrunken log2 fold change: 0.444

RRIRNRPPRLPRPRPRPPWPPRP
shrunken log2 fold change: 0.387

RRIRNRPPRLPRPRPRPPYEPRP
shrunken log2 fold change: -0.18

RRIRNRPPRLPRPRPRPQCGPRP
shrunken log2 fold change: -0.241

RRIRNRPPRLPRPRPRPQDFPRP
shrunken log2 fold change: -0.0385

RRIRNRPPRLPRPRPRPQDMPRP
shrunken log2 fold change: 0.0124

RRIRNRPPRLPRPRPRPQDVPRP
shrunken log2 fold change: -0.0757

RRIRNRPPRLPRPRPRPQDWPRP
shrunken log2 fold change: -0.133

RRIRNRPPRLPRPRPRPQGQPRP
shrunken log2 fold change: 0.225

RRIRNRPPRLPRPRPRPQHQPRP
shrunken log2 fold change: -0.135

RRIRNRPPRLPRPRPRPQIEPRP
shrunken log2 fold change: -0.251

RRIRNRPPRLPRPRPRPQKYPRP
shrunken log2 fold change: 0.125

RRIRNRPPRLPRPRPRPQMTPRP
shrunken log2 fold change: -0.661

RRIRNRPPRLPRPRPRPQNAPRP
shrunken log2 fold change: -0.011

RRIRNRPPRLPRPRPRPQNFPRP
shrunken log2 fold change: 0.0364

RRIRNRPPRLPRPRPRPQPGPRP
shrunken log2 fold change: 0.285

RRIRNRPPRLPRPRPRPQPLPRP
shrunken log2 fold change: -0.102

RRIRNRPPRLPRPRPRPQPWPRP
shrunken log2 fold change: -0.00313

RRIRNRPPRLPRPRPRPQREPRP
shrunken log2 fold change: -0.00141

RRIRNRPPRLPRPRPRPQTDPRP
shrunken log2 fold change: -0.19

RRIRNRPPRLPRPRPRPQWWPRP
shrunken log2 fold change: 0.034

RRIRNRPPRLPRPRPRPRCIPRP
shrunken log2 fold change: -0.256

RRIRNRPPRLPRPRPRPRDAPRP
shrunken log2 fold change: -0.163

RRIRNRPPRLPRPRPRPREIPRP
shrunken log2 fold change: 0.0831

RRIRNRPPRLPRPRPRPRFGPRP
shrunken log2 fold change: 0.399

RRIRNRPPRLPRPRPRPRFIPRP
shrunken log2 fold change: -0.533

RRIRNRPPRLPRPRPRPRFRPRP
shrunken log2 fold change: 0.0503

RRIRNRPPRLPRPRPRPRGGPRP
shrunken log2 fold change: 0.474

RRIRNRPPRLPRPRPRPRGHPRP
shrunken log2 fold change: 0.347

RRIRNRPPRLPRPRPRPRGPPRP
shrunken log2 fold change: 0.893

RRIRNRPPRLPRPRPRPRHMPRP
shrunken log2 fold change: -0.199

RRIRNRPPRLPRPRPRPRHQPRP
shrunken log2 fold change: -0.038

RRIRNRPPRLPRPRPRPRITPRP
shrunken log2 fold change: 0.0468

RRIRNRPPRLPRPRPRPRMDPRP
shrunken log2 fold change: -0.104

RRIRNRPPRLPRPRPRPRMRPRP
shrunken log2 fold change: 0.867

RRIRNRPPRLPRPRPRPRMTPRP
shrunken log2 fold change: 0.259

RRIRNRPPRLPRPRPRPRNCPRP
shrunken log2 fold change: -0.0144

RRIRNRPPRLPRPRPRPRNDPRP
shrunken log2 fold change: -0.304

RRIRNRPPRLPRPRPRPRNSPRP
shrunken log2 fold change: -0.0392

RRIRNRPPRLPRPRPRPRPNPRP
shrunken log2 fold change: 0.135
